Literature values, collected in article PMC8967867.

Molecular target: NCOA3 CID (Homo sapiens) (UniProt Q9Y6Q9)
Sequence (Q9Y6Q9 1023-1093): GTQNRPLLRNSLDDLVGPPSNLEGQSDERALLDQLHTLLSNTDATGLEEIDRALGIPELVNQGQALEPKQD

CBP NCBD, sequence (Q92793 2058-2116): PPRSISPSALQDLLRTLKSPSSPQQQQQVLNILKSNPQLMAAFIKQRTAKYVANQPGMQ

Kd: 200 nM
Substance: CBP NCBD (from UniProt Q92793)
